Reference: the DeepSol protein solubility set

Test: soluble on expression in E. coli; label from the status in PepcDB or PDB records

Row | Sequence | soluble on expression in E. coli
1 | MRLEIPNHTERFGVVRLHEVQRILELDSGRVRDESPAVGLRRLDDADLRDVLEQTAIVVPTRNERLKLLEGVLSGIPHEALILVASNSSPDRFQMERDLLEEFAHLTERPALIFHQKDPALAEALRAGGYPHPIGEDGLVRSGKAEGMILALVFAALSGRRYVGFIDADNYFPGAVWEYVRAYAAGFLMAKTPFAMVRILWRYKPKLTEDEGVVFRRYGRVSERNNRALNQLIGGVSGFETDVVKTANAGEHAMSLGLALRLPLASGYAVEPQELVSLLELYGGVFPLEDEEVLQHGVEIFQIETRNPALHENKGDEHIRDMLLACLATVYHSKLATEEVRQSVLEELQAAGALAPGEEPPPPVLYPPLSSLDLQAVRKALRGHFSRFRVP | soluble
2 | MAHHHHHHMPLIEAHLPALRPYIRYPVVAATGSFDVGRLQQYATVCPATYVIETITEALAELTRRMKWSFDLCGNFRDAADFAARGISFVALERATGNIAAGASSFCICDGGVEVGVETAESHQRRGLALACSARLILERLKHGLYPNWDAHVPHSAHLAEKLGYTRGTPYKAYVDELQT | not soluble
3 | SGIIKMAIRFDRRAYPPQITPKMCLLEWCRREKLPQPVYETVQRTIDRMFCSVVTVAEQKYQSTLWDKSKKLAEQTAAIVCLRSQGLPEGRLGEESPSLNKRKREAPDQDPGGPR | soluble
4 | MAHTSRHNEFSIGASASLWECMLNQWLGRLYQNQDAHTGLQFEARIAQRQSLVKQLHERQLDLLITTEAPKMDEFSSQLLGYFTLALYTSAPSKLKGDLNYLRLEWGPDFQQHEAGLIGADEVPILTTSSAELAQQQIAMLNGCTWLPVSWARKKGGLHTVVDSTTLSRPLYAIWLQNSDKNALIRDLLKINVLDEVY | not soluble
5 | MGSDKIHHHHHHMIQSVRIKNFKNFKNTKIDGFTKLNIITGQNNAGKSNLLEALYYLVGKSMHPCTNVLEIYDNIRKEPLTSESKSLMFYGLDTKEEIQIVTTLDNNQTLDLQIKFIASENQKVIESQIIPTAEQTQMSSQLNFTLKKNNEEIYNDHLNIAKVPNFPPIPNQSGYNRQFKNFDSNQLQKLLPFESAVIIPSDVVYRQAHMIQAVSKICSNNQLEEELNKHLNQFDNNIQAISFNTNNQLKLKVKDIKEKVPLSVFGDGLKKYLHIVSAFMADNAKTIYIDEVENGLHFSRMRLLLKNTIDFINNNKDGNLQVFMTTHSQEFIEILDQVIREKDFAHQTKLFCLKQDDQYVIPRTYYGENLEYYFENEENLFG | not soluble
6 | MSKIELKQLSFAYDNQEALLFDQANITMDTNWKLGLIGRNGRGKTTLLRLLQKQLDYQGEILHQVDFVYFPQTVAEEQQLTYYVLQEVTSFEQWKLERELTLLNVDPEVLWRPFSSLSGGEKTKVLLGLLFIEENAFPLIDEPTNHLDLAGRQQVAEYLKKKKHGFILVSHDRAFVDEVVDHILAIEKSQLTLYQGNFSIYEEQKKLRDAFELAENEKIKKEVNRLKETARKKAEWSMNREGDKYGNAKEKGSGAIFDTGAIGARAARVMKRSKHIQQRAETQLAEKEKLLKDLEYIDSLSMDYQPTHHKTLLTVEELRLGYEKNWLFAPISFSINAGEIVGITGKNGSGKSSLIQYLLDNFSGDSEGEATLAHQLTISYVRQDYEDNQGTLSEFAEKNQLDYTQFLNNLRKLGMERAVFTNRIEQMSMGQRKKVEVAKSLSQSAELYIWDEPLNYLDVFNHQQLEALILSVKPAMLVIEHDAHFMKKITDKKIVLKS | not soluble
7 | MTVANWQVRDLTLILRTGEMQSRLEQARTDFGALLPETVYFQPSAIRLGEFDDEYILTRQELVYVYLREDIARQCALRRHLPSNSSNSGIMATAIPPWLMDARRLNRVMQERCDQGGLVHYYQGPHTNQFFLAIMPSNCFVRFGTDVINNENYGFYARGGNYTEEGEDDDDEMDDEDETGGAETRDSQTGNLINYPIIALGSCHLSALEHHHHHH | not soluble
8 | MSLYYVTEDDVDKNFDMKAAINAVREAFEEYGKGRAYSSTRVRTFSQDGVLNTMPAAMEKYHISGLKSYYATRNGAKFVVVLFDTAADELLAIIEANRLGQIRTGAVTAYATSILHKNVEIFAIIGSGFQAETQLEGMLKVANPTEIRVYSRNQEHARNFSERSSKKFGVSIRAVESAEAALIGADTITTITNSNVPIVYRKYLGDEYHINLAGSNYINRREAESAVLSDANIVVTEHLEQSLIESVEISEYVKLGGKPIELKDVAVDPTRYSKFHRTVFKSMGIGLEDIISGYAVLKNMGIIEGHHHHHH | soluble
